test system: MS2 coat protein; test: apparent KD of MS2 coat protein; higher = weaker reporter binding; conditions: Eterna round: R107; input ligand: theophylline 20 uM
In short: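 Designed RNA switches, transcribed on-chip from Illumina sequencing clusters, were titrated with SNAP-549-labelled MS2 coat protein from 0.7 or 1.5 nM to 3 µM in twofold steps. The solution was 100 mM Tris-HCl pH 7.5, 80 mM KCl, 4 mM MgCl2, with constant ligand or without it. Apparent KD is the median over each design's normalised cluster binding-curve fits.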

Row | Sequence | apparent KD of MS2 coat protein [nM]
1 | CAUACUUUAGUAUGUAAUGUGGACAGUGAUACCAGAUACGAAAGUAUCCCUUGGCAGCACAACAUGAGGAUCACCCAUGUAUUUU [Theophylline A 3] | 20
2 | GGCAGUCAUAGGAGGGCAAAUAUACUCGAAGGAGCGUCAUAGUAGGCAGGUAGGUCGCGAGACAUGAGGAUCACCCAUGUAGAGA [wwzmullin] | 106
3 | AUUAUCAUGGUCAUAUAUAUUUCGUCAGAUACCAGACUAGAUAUAGUCCCUUGGCAGCUGUUACAUGAGGAUCACCCAUGUUAUU [JR_ExcTheophyA_Sub017] | 80.3
4 | CACGGAAGAGUGGAUCACCCUCUUAAUAAACGAGGACCGGUACGGCCGCCACUCGAAAACCGUGACCUGUACGAAAAGUGCAGGA | 202
5 | UGACAUUGCUGCGAUACCAGACAUGAGGAUCACCCAUGUACCAAGGUACGAAAAUAACAUGUCCCUUGGCAGCGCAGCAAUGUCU [MAT - Exclusion Theophlline B - Mod of Eli - D4] | 25.7
6 | GCACCAGGUACGGAUACCAGCUGCCACAGUUACAUGAGGAUCACCCAUGUGAAAACGUGUAGCCCUUGGCAGCUGUACCUGGUGC [SSThB NP+V+V2 #8 Same Structure] | 186
7 | AGCUCAGAGAGUGAUACCAGACUACAUGAGGAUCACCCAUGUUACUUUUAAAUAUCAUGAGUCCCUUGGCAGCACAAGAAGAGCA [JR_ExcTheophyB_Sub016] | 117
8 | AGAGUCUAGUCGGCCGCCACUCAUGUCCUAAGGACAUGAGGAUCACCCAUGUACCAAAGGUACAUGAGGACCGGGACUGGACUCA [Omei Tryp B SS C v1] | 345
9 | GGACCAUGGCGCGAUACCAGCUUGAGUGUACUGGCCAGGUACAUGAGGAUCACCCAUGUAAGCCCUUGGCAGCGCGCCAUGGUCC [#1 Exclusion - Theophylline B Attempt #24 (HarryS)] | 16.1
10 | CGUGGUUGAGAUGGGCCUCUGAUAAGUCUGCGAGGACCGGUACGGCCGCCACUCGAGGACAUGAGGAUCACCCAUGUACUUCGCG [Vequar] | 139
11 | ACAUGAGGAUCACCCAUGUUCCUCAUUGAUACCAGUGAAUUUAGACGCCCUUGGCAGCGAGUUUUUUUAGAAGAAGUUUUUUUUU [6.F] | 659
12 | GGGCCCGGGCGCGAGCCCGGGCCCAUUGAUACCAGUGAGAGAGAGCGCCCUUGGCAGCGAAUCCUAACAUGAGGAUCACCCAUGU [5.N] | 84.6
13 | UCGGACAUGAGGAUCACCCAUGUAAAUCCUCGAGGACCGGUACGGCCGCCACUCGAACGAGUGGCGCGCGAGUGCGCACUCGCGC [aFa] | 57.9
14 | GGGCGCUAUCCCGCGAGGGAUAGCGUUCGACGAGGACCGGUACGGCCGCCACUCGAACGAGUGGUGACAUGAGGAUCACCCAUGU [Naa] | 56.7
15 | AAAUAAAUACAUGAGGAUCACCCAUGUGAAGGAGCGCCCGUUAGGGCAGGUAGGUCGCACAUGAAUAACUCCGUGCAAAAGCACA [ArgEX 18 #OpenEnded] | 38.8

same assay, conditions: Eterna round: R107; input ligand: theophylline 2 mM

Row | Sequence | apparent KD of MS2 coat protein [nM]
16 | UGCAUGAUCUGAAGGAGCGUGUAUGAUGAUAACAUGAGGAUCACCCAUGUCGAGACGGUAACACAGGUAGGUCGCAGAUCAUGCU [Arg B SS t4] | 28.3
17 | CUACAUUUGUAGAAACCGGUCAACAAUAAUCGAGGACCGGUACGGCCGCCACUCGAUGUAAAAUAAACAUGAGGAUCACCCAUGU [Tryptophan A 12] | 20
18 | GACAUGAGGAUCACCCAUGUACCGCGAGAAGGAGCGCGGAUAAACGCAGGUAGGUCGCUCGUGGGCUCACAUUCAAUUGUAAGCU [Digece] | 58.3
19 | CUCCCGUGAGCGGCCGCCACUGGAGGCCUCGCGCGACAUGAGGAUCACCCAUGUUGGCCCGGCCUCAGGACCGGGUUCGCGUGAG [Same State - Tryptophan B Attempt #6 (HarryS)] | 12.7
20 | GAGCUGAUGUAGAGCUUAUAUAAGAGAGAUACCAGUACAGAAAUGUACCCUUGGCAGCUCAACUUUACAUGAGGAUCACCCAUGU [Ex Theophylline A 20] | 23.6
21 | GGUAUGUAUUCGGAAACGAAUGCAUACCAUCGAGGACCGGUACGGCCGCCACUCGUGGCUGAUCAACAUGAGGAUCACCCAUGUA [Ex Tryptophan A 1] | 83.4
22 | GGAUAGGACACGGCCGCCACUACCUAGGAUACUAGCAACAUUUGGGUAUAUGAGGAUCACCCAUAUAGGACCGGGUGUCCUAUCG | 95.2
23 | GUUGGAUUUUCGGCCGCCACUGAGAGAGUCAUGUGAACAUGAGGAUCACCCAUGUAAUAUAUAUACAGGACCGGGAGGGUUGUAA [4.L] | 18.6
24 | GCUGUUGCGGUGAGGUAUCCGGCUGUGGAAGGAGCGCGGAAUGCCGCAGGUAGGUCGCCACAUGAGGAUCACCCAUGUCGAUAUA [Atzalama] | 35
25 | AACAUGAGGAUCACCCAUGUUUGCUAUGAAGGAGCGUCGGAAAUGACAGGUAGGUCGCAUGGUAGACCGAGUAUUAUCUGUAUGG [EAA NP+V+V2 #11] | 10.7
26 | UAUCCACAUGAGGAUCACCCAUGUUAGGAAGGAGCGGUGAGUGCACCAGGUAGGUCGCCUAGCUGAGGACUGUCGGUGGAUUCGU [Exclusion - Arginine A (Freestyle 20)] | 57.1
27 | ACGUAAAGCAGAAGGAGCGUCUUCAAUUUACAUGAGGAUCACCCAUGUUUUGUGAUCAUAUGACAGGUAGGUCGCUGAAGUACGA [JR_SSArginiB_Sub002] | 141
28 | GCACCAGGUACGGAUACCAGCUAUAGGUACAGCGGAGGACAUGAGGAUCACCCAUGUGGUAGCCCUUGGCAGCUGUACCUGGUGC [EThB NP+V+V2 #1 +-Same Structure] | 40.4
29 | GGCAGUCAUAGGAGGGCAAAUAUACUCGAAGGAGCGUCAUAGUAGGCAGGUAGGUCGCGAGACAUGAGGAUCACCCAUGUAGAGA [wwzmullin] | 125
30 | CACGGAAGAGUGGAUCACCCUCUUAAUAAACGAGGACCGGUACGGCCGCCACUCGAAAACCGUGACCUGUACGAAAAGUGCAGGA | 437
31 | GCACCAGGUACGGAUACCAGCUGCCACAGUUACAUGAGGAUCACCCAUGUGAAAACGUGUAGCCCUUGGCAGCUGUACCUGGUGC [SSThB NP+V+V2 #8 Same Structure] | 14.6
32 | AGAGUCUAGUCGGCCGCCACUCAUGUCCUAAGGACAUGAGGAUCACCCAUGUACCAAAGGUACAUGAGGACCGGGACUGGACUCA [Omei Tryp B SS C v1] | 189
33 | GGACCAUGGCGCGAUACCAGCUUGAGUGUACUGGCCAGGUACAUGAGGAUCACCCAUGUAAGCCCUUGGCAGCGCGCCAUGGUCC [#1 Exclusion - Theophylline B Attempt #24 (HarryS)] | 36.5
34 | CGUGGUUGAGAUGGGCCUCUGAUAAGUCUGCGAGGACCGGUACGGCCGCCACUCGAGGACAUGAGGAUCACCCAUGUACUUCGCG [Vequar] | 50.5
